From PMC11063343 (Frontiers in Cellular and Infection Microbiology, 2024)
No end group written: not given here. *: point of attachment. Biotin = O=C1N[C@H]2[C@H](CS[C@H]2CCCCC(=O)*)N1

Target: T1, full length SARS-CoV-2 spike protein (SARS-CoV-2, UniProt P0DTC2)
T1 construct: source: bought: ACROBiosystems
Assay: SPR
Conditions: both partners purified

## Biotin-MYCVFNRNEDACRYG (cysteine pairing not given here) [cellugyrin Inner loop 1A peptide]
  Kd: 4.53 mM
